Results from US20060257928.

Target: biotinylated H3 peptide (first 21 amino acids of Histone H3 with a Biotin label on the CO2H terminus, Upstate Biotechnology), P68431

B1: SUV39H1(82-412)-GST protein (protein)
chain: CVRILKQFHKDLERELLRRHHRSKTPRHLDPSLANYLVQKAKQRRALRRWEQELNAKRSHLGRITVENEVDLDGPPRAFVYINEYRVGEGITLNQVAVGCECQDCLWAPTGGCCPGASLHKFAYNDQGQVRLRAGLPIYECNSRCRCGYDCPNRVVQKGIRYDLCIFRTDDGRGWGVRTLEKIRKNSFVMEYVGEIITSEEAERRGQIYDRQGATYLFDLDYVEDVYTVDAAYYGNISHFVNHSCDPNLQVYNVFIDNLDERLPRIAFFATRTIRAGEELTFDYNMQVDPVDMESTRMDSNFGLAGLPGSPKKRVRIECKCGTESCRKYLF
With B1 the “Histone methyl transferase activity (radioactive assay, 14C labelled methylated H3 peptide)” value was “Histone methyl transferase activity of truncated protein was confirmed by radioactive assay”.
